Results: patent US20180142007A1 (published 2018)
Where two headings read alike, the source gives them in different places.

Legend:
Assay in all cases: SPR
[1] = target: T1, misdisordered truncated tau 151-391/4R (UniProt P10636 468-708)
[2] = target: T1, misdisordered truncated tau 151-391/4R; remark: listed apart in the source
[3] = target: T1, misdisordered truncated tau 151-391/4R; remark: listed apart in the source

T1 sequence (P10636 468-708): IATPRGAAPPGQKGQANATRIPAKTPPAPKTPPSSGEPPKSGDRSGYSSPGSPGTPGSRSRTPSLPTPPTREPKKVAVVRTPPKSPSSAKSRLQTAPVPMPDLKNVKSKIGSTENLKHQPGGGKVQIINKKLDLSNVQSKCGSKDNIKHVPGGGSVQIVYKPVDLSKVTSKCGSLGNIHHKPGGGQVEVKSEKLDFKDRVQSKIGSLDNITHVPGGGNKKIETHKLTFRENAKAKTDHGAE

Kd [1]	Kd [2]	Kd [3]	Binder
14.7 nM	14.7 nM		AX004, humanized DC8E8 RHD/RKA (isotype not stated where tested) (antibody) VH: QVQLVQSGAEVKKPGSSVKVSCKASGYTFSDYVISWVRQAPGQGLEWMGEIFPRSGSTYYNEKFKGRVTITADKSTSTAYMELSSLRSEDTAVYYCARDYYGTSFAMDYWGQGTLVTVSS light: DIVMTQSPLSLPVTPGEPASISCKSSQSLLNSRTRKNYLAWYLQKPGQSPQLLIYWASTRESGVPDRFTGSGSGTDFTLKISRVEAEDVGVYYCKQSFYLRTFGQGTKVEIKRTVAAPSVFIFPPSDEQLKSGTASVVCLLNNFYPREAKVQWKVDNALQSGNSQESVTEQDSKDSTYSLSSTLTLSKADYEKHKVYACEVTHQGLSSPVTKSFNRGEC
9.39 nM		9.39 nM	AX016, humanized DC8E8 RHD/RKB (isotype not stated where tested) (antibody) VH: QVQLVQSGAEVKKPGSSVKVSCKASGYTFSDYVISWVRQAPGQGLEWMGEIFPRSGSTYYNEKFKGRVTITADKSTSTAYMELSSLRSEDTAVYYCARDYYGTSFAMDYWGQGTLVTVSS light: DIVMSQSPLSLPVTPGEPASISCKSSQSLLNSRTRKNYLAWYLQKPGQSPQLLIYWASTRESGVPDRFTGSGSGTDFTLKISRVEAEDVGVYYCKQSFYLRTFGQGTKVEIKRTVAAPSVFIFPPSDEQLKSGTASVVCLLNNFYPREAKVQWKVDNALQSGNSQESVTEQDSKDSTYSLSSTLTLSKADYEKHKVYACEVTHQGLSSPVTKSFNRGEC
